Molecular target: T1, QKI5 (UniProt Q96PU8 1-341)
T1 sequence: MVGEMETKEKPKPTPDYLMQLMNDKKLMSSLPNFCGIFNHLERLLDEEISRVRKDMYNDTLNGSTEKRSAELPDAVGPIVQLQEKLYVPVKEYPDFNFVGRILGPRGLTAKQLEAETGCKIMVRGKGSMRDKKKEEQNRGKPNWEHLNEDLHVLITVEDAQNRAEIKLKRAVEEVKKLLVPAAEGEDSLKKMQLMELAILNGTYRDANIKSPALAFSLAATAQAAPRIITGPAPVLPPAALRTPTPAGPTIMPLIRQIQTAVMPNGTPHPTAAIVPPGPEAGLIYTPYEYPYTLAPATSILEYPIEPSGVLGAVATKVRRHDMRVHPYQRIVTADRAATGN
Assay: EMSA; 50 fmol biotin-labelled probe; LightShift Chemiluminescent EMSA Kit per manufacturer; 50 fmol biotin-labelled probe, 4 ul QKI5; room temperature 20 min; native 8% PAGE; buffer, salt and pH not stated
Conditions: protein: commercial; chain copies: 2; label: 5'-biotin (cold version unlabelled); blunt

Binder | binding result
wild-type CXCL2 promoter probe (dsDNA) DNA 1: GAAAGGATGGGGGATTGCAACACTGTTAAC DNA 2: GTTAACAGTGTTGCAATCCCCCATCCTTTC | binds
mutant CXCL2 promoter probe (dsDNA) DNA 1: GAAAGGATGGAAAGCCATAACACTGTTAAC DNA 2: GTTAACAGTGTTATGGCTTTCCATCCTTTC | no binding

Reference: PMC8518180, “A global screening identifies chromatin-enriched RNA-binding proteins and the transcriptional regulatory activity of QKI5 during monocytic differentiation”
